Results published in patent publication US20240059797A1 (GRITSTONE BIO, published 2024).

B1: G8(5G08) scFv (scFv, V domains shown)
VH: QVQLVQSGAEVKKPGASVKVSCKASGYTFTSNYMHWVRQAPGQGLEWMGWMNPNSGNTGYAQKFQGRVTMTRDTSTSTVYMELSSLRSEDTAVYYCARGLYGDYFLYYGMDVWGQGTTVTVSS
VL: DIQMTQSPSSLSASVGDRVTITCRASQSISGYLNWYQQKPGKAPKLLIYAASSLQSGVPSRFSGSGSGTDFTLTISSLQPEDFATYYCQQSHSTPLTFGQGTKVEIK
B2: G8(5F02) scFv (scFv, V domains shown)
VH: QVQLVQSGAEVKKPGASVKVSCKASGYTFTGYYIHWVRQAPGQGLEWMGVINPSGGSTTYAQKLQGRVTMTRDTSTSTVYMELSSLRSEDTAVYYCARDRDSSWTYYYYGMDVWGQGTTVTVSS
VL: EIVMTQSPATLSVSPGERATLSCRASQSVGNSLAWYQQKPGQAPRLLIYGASTRATGIPARFSGSGSGTEFTLTISSLQSEDFAVYYCQQYGSSPYTFGQGTKVEIK
B3: G8(2C11) scFv (scFv, V domains shown)
VH: QVQLVQSGAEVKKPGASVKVSCKASGYTFTSYAMNWVRQAPGQGLEWMGWINPNSGGTNYAQKFQGRVTMTRDTSTSTVYMELSSLRSEDTAVYYCARDPFWSGHYYYYGMDVWGQGTTVTVSS
VL: not shown
B4: G8(2E04) scFv (scFv, V domains shown)
VH: QVQLVQSGAEVKKPGSSVKVSCKASGGTFSSYGVSWVRQAPGQGLEWMGWISPYSGNTDYAQKFQGRVTITADESTSTAYMELSSLRSEDTAVYYCARGLYYMDVWGKGTTVTVSS
VL: DIQMTQSPSSLSASVGDRVTITCRASQSISSWLAWYQQKPGKAPKLLIYDASNLETGVPSRFSGSGSGTDFTLTISSLQPEDFATYYCQQSYSTPLTFGGGTKLEIK
B5: G8(1C01) scFv (scFv, V domains shown)
VH: QVQLVQSGAEVKKPGASVKVSCKASGGTFSSHAISWVRQAPGQGLEWMGVIIPSGGTSYTQKFQGRVTMTRDTSTSTVYMELSSLRSEDTAVYYCARGDYYDSSGYYFPVYFDYWGQGTLVTVSS
VL: DIQMTQSPSSLSASVGDRVTITCRASQNIYTYLNWYQQKPGKAPKLLIYDASNLETGVPSRFSGSGSGTDFTLTISSLQPEDFATYYCQQANGFPLTFGGGTKVEIK
B6: G8(4F05) scFv (scFv, V domains shown)
VH: QVQLVQSGAEVKKPGASVKVSCKASGYTFSNMYLHWVRQAPGQGLEWMGWINPNTGDTNYAQTFQGRVTMTRDTSTSTVYMELSSLRSEDTAVYYCARGLYGDYFLYYGMDVWGQGTKVTVSS
VL: DIQMTQSPSSLSASVGDRVTITCRASQGISNYLAWYQQKPGKAPKLLIYAASTLQSGVPSRFSGSGSGTDFTLTISSLQPEDFATYYCQQSYSTPLTFGGGTKVEIK
B7: G8(5C03) scFv (scFv, V domains shown)
VH: QVQLVQSGAEVKKPGASVKVSCKASGYTFTSYYMHWVRQAPGQGLEWMGWMNPNSGNTGYAQKFQGRVTMTRDTSTSTVYMELSSLRSEDTAVYYCARGLLGFGEFLTYGMDVWGQGTLVTVSS
VL: DIQMTQSPSSLSASVGDRVTITCRASQGISNWLAWYQQKPGKAPKLLIYAASTLQSGVPSRFSGSGSGTDFTLTISSLQPEDFATYYCQQTYSTPWTFGQGTKLEIK
B8: G10(1E12) scFv (scFv, V domains shown)
VH: QVQLVQSGAEVKKPGASVKVSCKASGYIFTGYYMHWVRQAPGQGLEWMGMIGPSDGSTSYAQKFQGRVTMTRDTSTSTVYMELSSLRSEDTAVYYCAREDDSMDVWGKGTTVTVSS
VL: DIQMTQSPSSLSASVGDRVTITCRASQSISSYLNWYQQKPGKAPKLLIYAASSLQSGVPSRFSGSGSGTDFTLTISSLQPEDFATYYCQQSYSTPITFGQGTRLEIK
B9: G10(4C05) scFv (scFv, V domains shown)
VH: QVQLVQSGAEVKKPGASVKVSCKASGYTFTGYYMHWVRQAPGQGLEWMGIIGPSDGSTTYAQKFQGRVTMTRDTSTSTVYMELSSLRSEDTAVYYCARAENGMDVWGQGTTVTVSS
VL: DIQMTQSPSSLSASVGDRVTITCRASQRISSYLNWYQQKPGKAPKLLIYSASTLQSGVPSRFSGSGSGTDFTLTISSLQPEDFATYYCQQSYSTPFTFGPGTKVDIK
B10: G10(4E12) scFv (scFv, V domains shown)
VH: QVQLVQSGAEVKKPGASVKVSCKASGYTFTGYYMHWVRQAPGQGLEWMGMIGPSDGSTSYAQRFQGRVTMTRDTSTSTVYMELSSLRSEDTAVYYCAREEDGMDVWGQGTTVTVSS
VL: DIQMTQSPSSLSASVGDRVTITCRASQGISTYLAWYQQKPGKAPKLLIYDASSLQSGVPSRFSGSGSGTDFTLTISSLQPEDFATYYCQQYYSYPWTFGQGTRLEIK
B11: G10(1B07) scFv (scFv, V domains shown)
VH: QVQLVQSGAEVKKPGASVKVSCKASGYTFTSYYMHWVRQAPGQGLEWMGIIHPGGGTTSYAQKFQGRVTMTRDTSTSTVYMELSSLRSEDTAVYYCARDKVYGDGFDPWGQGTLVTVSS
VL: DIQMTQSPSSLSASVGDRVTITCRASQSISRWLAWYQQKPGKAPKLLIFDASRLQSGVPSRFSGSGSGTDFTLTISSLQPEDFATYYCQQAEAFPYTFGQGTKVEIK
B12: G10(2C04) scFv (scFv, V domains shown)
VH: QVQLVQSGAEVKKPGASVKVSCKASGGTFSNSIINWVRQAPGQGLEWMGWMNPNSGNTNYAQKFQGRVTMTRDTSTSTVYMELSSLRSEDTAVYYCAREQWPSYWYFDLWGRGTLVTVSS
VL: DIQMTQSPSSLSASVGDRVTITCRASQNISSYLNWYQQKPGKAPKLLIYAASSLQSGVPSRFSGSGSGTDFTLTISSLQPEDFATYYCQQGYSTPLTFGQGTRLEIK
B13: G10(4E07) scFv (scFv, V domains shown)
VH: QVQLVQSGAEVKKPGSSVKVSCKASGYTFTGYYMHWVRQAPGQGLEWMGRISPSDGSTTYAPKFQGRVTITADESTSTAYMELSSLRSEDTAVYYCARDMGDAFDIWGQGTTVTVSS
VL: not shown
B14: G10(4A02) scFv (scFv, V domains shown)
VH: QVQLVQSGAEVKKPGASVKVSCKASGYTLSYYYMHWVRQAPGQGLEWMGMIGPSDGSTSYAQRFQGRVTMTRDTSTGTVYMELSSLRSEDTAVYYCARDTGDHFDYWGQGTLVTVSS
VL: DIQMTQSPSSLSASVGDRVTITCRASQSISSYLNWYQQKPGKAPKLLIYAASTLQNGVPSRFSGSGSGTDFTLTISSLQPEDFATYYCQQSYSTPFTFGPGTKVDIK
B15: G10(4G06) scFv (scFv, V domains shown)
VH: QVQLVQSGAEVKKPGASVKVSCKASGYTLSYYYMHWVRQAPGQGLEWMGMIGPSDGSTSYAQRFQGRVTMTRDTSTGTVYMELSSLRSEDTAVYYCARDTGDHFDYWGQGTLVTVSS
VL: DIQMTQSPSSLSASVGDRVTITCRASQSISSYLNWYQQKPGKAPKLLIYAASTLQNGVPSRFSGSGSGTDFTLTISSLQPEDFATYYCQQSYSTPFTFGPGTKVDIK
B16: G10(4D04) scFv (scFv, V domains shown)
VH: QVQLVQSGAEVKKPGASVKVSCKASGYTFTGYYVHWVRQAPGQGLEWMGIIAPSDGSTNYAQKFQGRVTMTRDTSTSTVYMELSSLRSEDTAVYYCARDPGGYMDVWGKGTTVTVSS
VL: DIQMTQSPSSLSASVGDRVTITCRASQSISSYLAWYQQKPGKAPKLLIYDASKLETGVPSRFSGSGSGTDFTLTISSLQPEDFATYYCQQSYGVPTFGQGTKLEIK
B17: G10(1A07) scFv (scFv, V domains shown)
VH: EVQLLESGGGLVKPGGSLRLSCAASGFTFSSYWMSWVRQAPGKGLEWVSGISARSGRTYYADSVKGRFTISRDDSKNTLYLQMNSLKTEDTAVYYCARDQDTIFGVVITWFDPWGQGTLVTVSS
VL: DIQMTQSPSSLSASVGDRVTITCRASQGISNYLAWYQQKPGKAPKLLIYAASSLQGGVPSRFSGSGSGTDFTLTISSLQPEDFATYYCQQYFTTPYTFGQGTKLEIK
B18: G10(1H01) scFv (scFv, V domains shown)
VH: QVQLVQSGAEVKKPGASVKVSCKASGYTFTGYYMHWVRQAPGQGLEWMGMIGPSDGSTSYAQKFQGRVTMTRDTSTSTVYMELSSLRSEDTAVYYCARGVGNLDYWGQGTLVTVSS
VL: DIQMTQSPSSLSASVGDRVTITCRASQSISNYLNWYQQKPGKAPKLLIYAASSLQSGVPSRFSGSGSGTDFTLTISSLQPEDFATYYCHQTYSTPLTFGQGTKVEIK
B19: G10(3E04) scFv (scFv, V domains shown)
VH: QVQLVQSGAEVKKPGASVKVSCKASGNTFIGYYVHWVRQAPGQGLEWVGIINPNGGSISYAQKFQGRVTMTRDTSTSTVYMELSSLRSEDTAVYYCARGSGDPNYYYYYGLDVWGQGTTVTVSS
VL: DIQMTQSPSSLSASVGDRVTITCQASQDISNYLNWYQQKPGKAPKLLIYAASNLQSGVPSRFSGSGSGTDFTLTISSLQPEDFATYYCQQANSLPYTFGQGTKVEIK
B20: G10(1H08) scFv (scFv, V domains shown)
VH: QVQLVQSGAEVKKPGASVKVSCKASGVTFSTSAISWVRQAPGQGLEWMGWISPYNGNTDYAQMLQGRVTMTRDTSTSTVYMELSSLRSEDTAVYYCARDAHQYYDFWSGYYSGTYYYGMDVWGQGTTVTVSS
VL: DIQMTQSPSSLSASVGDRVTITCRASQGISNYLAWYQQKPGKAPKLLIYSASNLQSGVPSRFSGSGSGTDFTLTISSLQPEDFATYYCQQAYSFPWTFGQGTKVEIK
B21: G10(4D10) scFv (scFv, V domains shown)
VH: QVQLVQSGAEVKKPGASVKVSCKASGYTFTGYYLHWVRQAPGQGLEWMGMIGPSDGSTSYAQKFQGRVTMTRDTSTSTVYMELSSLRSEDTAVYYCARDGDAFDIWGQGTMVTVSS
VL: DIQMTQSPSSLSASVGDRVTITCRASQGISSWLAWYQQKPGKAPKLLIYDASNLETGVPSRFSGSGSGTDFTLTISSLQPEDFATYYCQQSYSTPLTFGGGTKVEIK
B22: G10(2G11) scFv (scFv, V domains shown)
VH: QVQLVQSGAEVKKPGASVKVSCKASGGTFSTHDINWVRQAPGQGLEWMGVINPSGGSAIYAQKFQGRVTMTRDTSTSTVYMELSSLRSEDTAVYYCARDRGYSYGYFDYWGQGTLVTVSS
VL: DIQMTQSPSSLSASVGDRVTITCRASQDISRYLAWYQQKPGKAPKLLIYDASNLETGVPSRFSGSGSGTDFTLTISSLQPEDFATYYCQQANSFPRTFGQGTKVEIK
B23: G10(1F06) scFv (scFv, V domains shown)
VH: QVQLVQSGAEVKKPGASVKVSCKASGYTFIGYYMHWVRQAPGQGLEWMGMIGPSDGSTSYAQKFQGRVTMTRDTSTSTVYMELSSLRSEDTAVYYCARDSSGLDPWGQGTLVTVSS
VL: DIQMTQSPSSLSASVGDRVTITCRASQSISNYLNWYQQKPGKAPKLLIYKASSLESGVPSRFSGSGSGTDFTLTISSLQPEDFATYYCQQSYIIPYTFGQGTKLEIK

Target: HLA-A*02:01_… (HLA-PEPTIDE target G8), recombinant complex (human, enzymatically biotinylated (BirA) for screening and functional assays)
Test: scFv PPE ELISA

Fold selective binding to target pHLA over minipool of negative control pHLAs, ≥ 3 fold:
B1
B2
B3
B4
B5
B6
B7

Target: HLA-A*01:01_… (HLA-PEPTIDE target G10), recombinant biotinylated complex (human, enzymatically biotinylated (BirA))
Test: scFv PPE ELISA

Fold selective binding to target pHLA over minipool of negative control pHLAs, ≥ 3 fold:
B8
B9
B10
B11
B12
B13
B14
B15
B16
B17
B18
B19
B20
B21
B22
B23
